In patent publication US12304944:

What was measured:
[1] = system: hFIX R338L-2Fc (codon-optimized human factor IX R338L, XIa-cleavable linker, IgG1 Fc, 3xGGGS linker, IgG1 Fc)
[2] = system: hFIX R338L (codon-optimized human factor IX carrying the R338L mutation)
Sequence of hFIX R338L (codon-optimized human factor IX carrying the R338L mutation) (chain, as listed by the source R338L R338L): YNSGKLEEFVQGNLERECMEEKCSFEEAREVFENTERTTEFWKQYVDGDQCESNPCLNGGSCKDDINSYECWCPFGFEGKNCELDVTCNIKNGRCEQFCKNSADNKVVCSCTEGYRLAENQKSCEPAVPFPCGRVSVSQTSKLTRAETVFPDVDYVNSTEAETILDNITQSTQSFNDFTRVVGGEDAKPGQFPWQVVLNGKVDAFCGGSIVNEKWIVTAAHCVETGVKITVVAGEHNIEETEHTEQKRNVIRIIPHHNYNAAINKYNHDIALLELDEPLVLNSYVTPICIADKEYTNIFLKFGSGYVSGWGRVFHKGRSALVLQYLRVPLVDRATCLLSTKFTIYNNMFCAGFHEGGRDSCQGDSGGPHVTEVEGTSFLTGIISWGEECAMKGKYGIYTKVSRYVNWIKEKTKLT

Sequence of hFIX R338L-2Fc (codon-optimized human factor IX R338L, XIa-cleavable linker, IgG1 Fc, 3xGGGS linker, IgG1 Fc) (chain, as listed by the source R338L R338L): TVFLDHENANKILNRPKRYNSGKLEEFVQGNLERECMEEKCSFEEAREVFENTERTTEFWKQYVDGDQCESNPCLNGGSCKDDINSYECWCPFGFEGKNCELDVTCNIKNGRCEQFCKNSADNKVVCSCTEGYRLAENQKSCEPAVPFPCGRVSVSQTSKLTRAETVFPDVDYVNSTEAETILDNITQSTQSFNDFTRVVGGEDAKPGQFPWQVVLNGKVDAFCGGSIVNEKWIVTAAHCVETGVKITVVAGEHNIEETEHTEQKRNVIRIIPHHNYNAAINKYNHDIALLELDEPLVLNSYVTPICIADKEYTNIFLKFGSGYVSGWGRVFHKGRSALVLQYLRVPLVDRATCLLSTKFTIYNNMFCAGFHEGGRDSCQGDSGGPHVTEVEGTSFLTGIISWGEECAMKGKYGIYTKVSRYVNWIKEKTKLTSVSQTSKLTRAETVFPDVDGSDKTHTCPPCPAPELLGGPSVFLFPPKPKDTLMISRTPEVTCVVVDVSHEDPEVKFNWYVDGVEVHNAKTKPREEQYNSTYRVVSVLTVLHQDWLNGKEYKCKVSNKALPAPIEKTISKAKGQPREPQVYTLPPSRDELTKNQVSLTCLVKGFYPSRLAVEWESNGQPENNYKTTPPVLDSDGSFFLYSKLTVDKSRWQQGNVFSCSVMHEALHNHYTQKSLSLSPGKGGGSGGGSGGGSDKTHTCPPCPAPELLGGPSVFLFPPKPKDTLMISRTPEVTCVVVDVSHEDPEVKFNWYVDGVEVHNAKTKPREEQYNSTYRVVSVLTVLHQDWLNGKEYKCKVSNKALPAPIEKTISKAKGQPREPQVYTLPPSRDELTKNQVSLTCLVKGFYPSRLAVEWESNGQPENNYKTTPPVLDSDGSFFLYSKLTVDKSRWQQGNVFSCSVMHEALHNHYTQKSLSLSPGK

activated factor XI (XIa)
cleavage by XIa, western blot of conditioned media treated or not with XIa [1]: Only low levels of partial XIa cleavage of media derived unpurified hFIX could be observed
processing by XIa in vitro [1]: its translated protein was efficiently processed by XIa
cleavage by XIa, western blot of conditioned media treated or not with XIa [2]: Only low levels of partial XIa cleavage of media derived unpurified hFIX could be observed
